± gives the standard deviation.
Test: protein stability index of a GFP-peptide fusion (GPS, HEK-293T) (PSI 1-6); higher = more stable
[1] = treatment: DMSO, c terminus: a fixed tail appended
[2] = treatment: MLN4924 1 uM, 8 h, c terminus: a fixed tail appended
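Note: 24-mer peptide tiles fused after GFP, lentivirally expressed, FACS-sorted into six equal bins by GFP/DsRed ratio, decoded by Illumina sequencing, PSI is the read-weighted mean bin number.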

Sequence: DSHYGTKGLKKVVHETPAASKTVF [BTBD1]
- protein stability index [1]: 4.05 ± 0.095
- protein stability index [2]: 4.14 ± 0.28

Sequence: AAAHASVDIKDVLDFYKQWKEIG [SMG5]
- protein stability index (treatment: DMSO, c terminus: native): 3.45 ± 0.3
- protein stability index (treatment: MLN4924 1 uM, 8 h, c terminus: native): 3.54 ± 0.55

Sequence: RQIRTNWATRKPPAPKSTYECRCI [TIA1]
- protein stability index [1]: 2.56 ± 0.17
- protein stability index [2]: 2.85 ± 0.45

Sequence: NYFSAMYSSEDSTLASVPPAATFG [ELF3]
- protein stability index [1]: 3.06 ± 0.3
- protein stability index [2]: 3.17 ± 0.43

Sequence: GVYGLQRNLLVENIIDIYKQESTR [TRIM55]
- protein stability index [1]: 2.61 ± 0.47
- protein stability index [2]: 2.95 ± 0.49

Sequence: DLENRCQSLTEDLEFRKSMYEEEI [LMNB1]
- protein stability index [1]: 4.91 ± 0.056
- protein stability index [2]: 4.76 ± 0.13

Sequence: SESQLASTESDKPTTGRVYESDSS [C18orf25]
- protein stability index [1]: 5.5 ± 0.15
- protein stability index [2]: 5.44 ± 0.26

Sequence: LDDEDDTSIGMPSLMYRSPPGAEE [RETREG3]
- protein stability index [1]: 5.44 ± 0.23
- protein stability index [2]: 5.39 ± 0.26

Sequence: KARGKSGPLFNFDVHDDVRLLSDA [FAM50A]
- protein stability index [1]: 3.87 ± 0.15
- protein stability index [2]: 3.81 ± 0.3

Sequence: KCLVTEAQTLLRLSGVQRVESVFF [RSAD1]
- protein stability index [1]: 2.53 ± 0.43
- protein stability index [2]: 2.4 ± 0.25

Sequence: PPLWAASAAGHLKVVQSLLNHGAS [FEM1C]
- protein stability index [1]: 2.58 ± 0.43
- protein stability index [2]: 2.76 ± 0.23

Sequence: TYQVHDYLRSKLCSLYENDCIFDK [PPP2R2C]
- protein stability index [1]: 2.22 ± 0.26
- protein stability index [2]: 2.32 ± 0.48

Sequence: RCVLVFEQVRFLMKSYSFLREAVP [SOAT2]
- protein stability index [1]: 2.54 ± 0.42
- protein stability index [2]: 2.8 ± 0.38

Sequence: PHWLDKWMLTRKQFGLLSFFFAVL [STEAP1]
- protein stability index [1]: 2.27 ± 0.28
- protein stability index [2]: 2.26 ± 0.38

Sequence: LPRKDYESLDYDRCINDPYLEVLE [CLCN6]
- protein stability index [1]: 3.4 ± 0.24
- protein stability index [2]: 3.58 ± 0.18

Sequence: MAPVMAHVDPEEPWSPCSARFITD [ADAMTS4]
- protein stability index [1]: 3.76 ± 0.4
- protein stability index [2]: 3.85 ± 0.37

Sequence: LITIATFQIAANLSMERYALVFGV [SLC19A2]
- protein stability index [1]: 3.02 ± 0.15
- protein stability index [2]: 3.12 ± 0.59

Sequence: PPTPGRPSLGPALSTGPRGLCAMP [VENTX]
- protein stability index [1]: 3.86 ± 0.37
- protein stability index [2]: 3.73 ± 0.26

Sequence: MAGSDTAPFLSQADDPDDGPVPGT [SPNS1]
- protein stability index [1]: 5.57 ± 0.17
- protein stability index [2]: 5.34 ± 0.23

Sequence: VDHQGVSWYHWKGFEFSVPFTEMK [TNXB]
- protein stability index [1]: 2.45 ± 0.55
- protein stability index [2]: 2.49 ± 0.74

Sequence: QYPAGTQGEQLEVPERLLVVLDME [SPSB2]
- protein stability index [1]: 3.82 ± 0.45
- protein stability index [2]: 3.69 ± 0.19

Sequence: SQKVPLRRMCFVDPVRQCAECALV [ZFYVE21]
- protein stability index [1]: 2.21 ± 0.2
- protein stability index [2]: 2.29 ± 0.23

Sequence: ISSGLRGCMLIELALRGRLQLEAC [GOLPH3]
- protein stability index [1]: 3.22 ± 0.62
- protein stability index [2]: 2.67 ± 0.21

Sequence: LPKPPGTPVVTESTATSITLTWDS [PTPRD]
- protein stability index [1]: 3.88 ± 0.087
- protein stability index [2]: 3.88 ± 0.18

Sequence: QLPRPPIVGGNKGRSGPLPPVPLG [WAS]
- protein stability index [1]: 3.55 ± 0.13
- protein stability index [2]: 3.83 ± 0.64

Sequence: HTGEKPYKCLECGKAFSQNSGLIN [ZNF24]
- protein stability index [1]: 2.68 ± 0.19
- protein stability index [2]: 2.88 ± 0.21

Sequence: HKACEVAPLQSVFQGQKTELNNCI [TRIM63]
- protein stability index [1]: 3.78 ± 0.12
- protein stability index [2]: 3.67 ± 0.41

Sequence: PTPQVDELDILPIHPPSGNSDLDP [BTBD10]
- protein stability index [1]: 5.54 ± 0.097
- protein stability index [2]: 5.39 ± 0.35

Sequence: VDMECQTDAFLDRPPTPLFIPAKT [RSPH3]
- protein stability index [1]: 4.01 ± 0.1
- protein stability index [2]: 4.19 ± 0.061

Sequence: LGGAAFLGTAIFIEADRRRAQLHV [SPNS1]
- protein stability index [1]: 2.35 ± 0.74
- protein stability index [2]: 2.32 ± 0.53

Sequence: KLALDMEISAYRKLLQGEEERLKL [LMNB1]
- protein stability index [1]: 3.24 ± 0.23
- protein stability index [2]: 3.28 ± 0.36

Sequence: LEEFQLALKHYVESASSQSGCLRI [NECAB1]
- protein stability index [1]: 2.21 ± 0.36
- protein stability index [2]: 2.16 ± 0.17

Sequence: QRAWVRALNEQACRNGSSIQIAFE [C2CD2L]
- protein stability index [1]: 2.46 ± 0.34
- protein stability index [2]: 2.69 ± 0.16

Sequence: SWTTVTSMTTPRCYVGATVLRGRL [KLHL12]
- protein stability index [1]: 2.23 ± 0.15
- protein stability index [2]: 2.24 ± 0.35

Sequence: EGFQRCDVARQLGKNNEFSRLVAG [PSD2]
- protein stability index [1]: 3.22 ± 0.25
- protein stability index [2]: 3.58 ± 0.23

Sequence: LVAFVLLNECVGTAYWALAGSIGG [SLC22A15]
- protein stability index [1]: 3.05 ± 0.34
- protein stability index [2]: 2.86 ± 0.38

Source: the supplement of paper PMC10567573
